Test results published in the supplement of paper PMC9112550, “Optimization of the antimicrobial peptide Bac7 by deep mutational scanning” (BMC Biology, 2022).

System: Escherichia coli TOP10
Experiment: shrunken log2 fold change of peptide-encoding DNA abundance (4.5 h post-induction vs induction); higher = less antimicrobial activity (less host growth inhibition)
Conditions: time post-induction: 4.5 h; library: site-saturation at positions 5, 18, 19, 20
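Also: peptides expressed intracellularly from a pBAD plasmid library in pooled LB shake-flask culture, induced with 0.3% L-arabinose, DNA abundance read by NGS, three biological replicates, DESeq2 with apeglm shrinkage.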

First: RRIRCRPPRLPRPRPRPNNMPRP
Second: RRIRNRPPRLPRPRPRPGTVPRP
The “shrunken log2 fold change” value of the first is lower: -0.745 for the first, -0.31 for the second.

Going from RRIRNRPPRLPRPRPRPRPMPRP to RRIRKRPPRLPRPRPRPDADPRP, the “shrunken log2 fold change” value falls from 0.522 to 0.163.

Going from RRIRQRPPRLPRPRPRPDQNPRP to RRIRERPPRLPRPRPRPWRWPRP, the “shrunken log2 fold change” value rises from -0.377 to 0.0174.

Compared with RRIRERPPRLPRPRPRPTKNPRP, RRIRRRPPRLPRPRPRPPVTPRP is higher in “shrunken log2 fold change” value: -0.187 for the first, 0.538 for the second.

Compared with RRIRVRPPRLPRPRPRPQIEPRP, RRIRFRPPRLPRPRPRPRAPPRP is higher in “shrunken log2 fold change” value: -0.0116 for the first, 0.821 for the second.

Compared with RRIRNRPPRLPRPRPRPKRGPRP, RRIRFRPPRLPRPRPRPSKVPRP is lower in “shrunken log2 fold change” value: 0.00668 for the first, -0.293 for the second.

Compared with RRIRRRPPRLPRPRPRPCKIPRP, RRIRKRPPRLPRPRPRPLEMPRP is higher in “shrunken log2 fold change” value: 0.0604 for the first, 0.659 for the second.

RRIRSRPPRLPRPRPRPMSTPRP and RRIRDRPPRLPRPRPRPWHPPRP are within 0.2 log units of each other in “shrunken log2 fold change” value: -0.13 for the first, -0.0206 for the second.

RRIRLRPPRLPRPRPRPITEPRP and RRIRHRPPRLPRPRPRPKLYPRP are within 0.2 log units of each other in “shrunken log2 fold change” value: 0.0241 for the first, 0.0366 for the second.

Compared with RRIRFRPPRLPRPRPRPVRTPRP, RRIRHRPPRLPRPRPRPCRCPRP is lower in “shrunken log2 fold change” value: 0.227 for the first, -0.271 for the second.

First: RRIRARPPRLPRPRPRPWYMPRP
Second: RRIRQRPPRLPRPRPRPILNPRP
The “shrunken log2 fold change” value of the first is lower: -0.958 for the first, -0.098 for the second.

Going from RRIRYRPPRLPRPRPRPEQQPRP to RRIRRRPPRLPRPRPRPGWYPRP, the “shrunken log2 fold change” value rises from -0.0122 to 0.205.

Going from RRIRIRPPRLPRPRPRPIIWPRP to RRIRNRPPRLPRPRPRPYANPRP, the “shrunken log2 fold change” value rises from -0.167 to 0.0782.

Compared with RRIRTRPPRLPRPRPRPAITPRP, RRIRMRPPRLPRPRPRPMQSPRP is higher in “shrunken log2 fold change” value: -0.44 for the first, 0.886 for the second.

Compared with RRIRPRPPRLPRPRPRPWCYPRP, RRIRPRPPRLPRPRPRPGRSPRP is higher in “shrunken log2 fold change” value: -0.143 for the first, 0.0919 for the second.

RRIRMRPPRLPRPRPRPEHRPRP and RRIRTRPPRLPRPRPRPASKPRP are within 0.2 log units of each other in “shrunken log2 fold change” value: 0.0887 for the first, -0.05 for the second.

RRIRQRPPRLPRPRPRPNRSPRP and RRIRPRPPRLPRPRPRPDENPRP are within 0.2 log units of each other in “shrunken log2 fold change” value: -0.0178 for the first, -0.0444 for the second.

RRIRNRPPRLPRPRPRPHPMPRP and RRIRTRPPRLPRPRPRPHYAPRP are within 0.2 log units of each other in “shrunken log2 fold change” value: 0.0281 for the first, -0.11 for the second.

First: RRIRGRPPRLPRPRPRPMMRPRP
Second: RRIRMRPPRLPRPRPRPLVRPRP
The “shrunken log2 fold change” value of the first is higher: 1.01 for the first, 0.51 for the second.

RRIRLRPPRLPRPRPRPQSIPRP and RRIRYRPPRLPRPRPRPHWRPRP are within 0.2 log units of each other in “shrunken log2 fold change” value: -0.0983 for the first, -0.0836 for the second.

RRIRQRPPRLPRPRPRPGIRPRP and RRIRLRPPRLPRPRPRPMQFPRP are within 0.2 log units of each other in “shrunken log2 fold change” value: 0.346 for the first, 0.179 for the second.

Going from RRIRKRPPRLPRPRPRPISPPRP to RRIRTRPPRLPRPRPRPHRCPRP, the “shrunken log2 fold change” value falls from 0.305 to -0.0268.

Compared with RRIRSRPPRLPRPRPRPNCPPRP, RRIRYRPPRLPRPRPRPACMPRP is higher in “shrunken log2 fold change” value: -0.374 for the first, -0.0495 for the second.

First: RRIRGRPPRLPRPRPRPPDCPRP
Second: RRIRTRPPRLPRPRPRPEENPRP
The “shrunken log2 fold change” value of the first is higher: 1.28 for the first, -0.0317 for the second.

RRIRHRPPRLPRPRPRPIFMPRP and RRIRWRPPRLPRPRPRPFQEPRP are within 0.2 log units of each other in “shrunken log2 fold change” value: -0.0784 for the first, -0.0827 for the second.

Going from RRIRWRPPRLPRPRPRPWEVPRP to RRIRTRPPRLPRPRPRPTCVPRP, the “shrunken log2 fold change” value falls from -0.0113 to -0.308.

RRIRGRPPRLPRPRPRPKWVPRP and RRIRQRPPRLPRPRPRPLFEPRP are within 0.2 log units of each other in “shrunken log2 fold change” value: 0.233 for the first, 0.0725 for the second.

Compared with RRIRPRPPRLPRPRPRPDGTPRP, RRIRGRPPRLPRPRPRPEQGPRP is higher in “shrunken log2 fold change” value: -0.122 for the first, 0.374 for the second.

Compared with RRIRARPPRLPRPRPRPPFRPRP, RRIRFRPPRLPRPRPRPWAWPRP is lower in “shrunken log2 fold change” value: 0.977 for the first, 0.174 for the second.

RRIRARPPRLPRPRPRPMWEPRP and RRIRMRPPRLPRPRPRPTQPPRP are within 0.2 log units of each other in “shrunken log2 fold change” value: -0.000921 for the first, 0.176 for the second.

Compared with RRIRIRPPRLPRPRPRPQCKPRP, RRIRPRPPRLPRPRPRPQRDPRP is higher in “shrunken log2 fold change” value: -0.532 for the first, 0.116 for the second.

RRIRCRPPRLPRPRPRPQTEPRP and RRIRIRPPRLPRPRPRPIQKPRP are within 0.2 log units of each other in “shrunken log2 fold change” value: 0.0248 for the first, 0.00853 for the second.

RRIRGRPPRLPRPRPRPSRSPRP and RRIRQRPPRLPRPRPRPMRYPRP are within 0.2 log units of each other in “shrunken log2 fold change” value: 0.253 for the first, 0.0851 for the second.

Compared with RRIRERPPRLPRPRPRPLRKPRP, RRIRTRPPRLPRPRPRPGGPPRP is lower in “shrunken log2 fold change” value: 0.722 for the first, 0.257 for the second.

Compared with RRIRMRPPRLPRPRPRPTLSPRP, RRIRGRPPRLPRPRPRPDQFPRP is higher in “shrunken log2 fold change” value: 0.377 for the first, 0.704 for the second.

First: RRIRIRPPRLPRPRPRPHLDPRP
Second: RRIRERPPRLPRPRPRPFWTPRP
The “shrunken log2 fold change” value of the first is higher: 0.178 for the first, -0.24 for the second.

Going from RRIRIRPPRLPRPRPRPMFFPRP to RRIRTRPPRLPRPRPRPHNFPRP, the “shrunken log2 fold change” value rises from -0.534 to -0.0359.

Going from RRIRTRPPRLPRPRPRPFNPPRP to RRIRCRPPRLPRPRPRPPTCPRP, the “shrunken log2 fold change” value rises from -1.37 to 0.183.

First: RRIRTRPPRLPRPRPRPAFHPRP
Second: RRIRIRPPRLPRPRPRPYKYPRP
The “shrunken log2 fold change” value of the first is higher: 0.0779 for the first, -0.89 for the second.

RRIRVRPPRLPRPRPRPHQCPRP and RRIRRRPPRLPRPRPRPMCWPRP are within 0.2 log units of each other in “shrunken log2 fold change” value: 0.00485 for the first, 0.0358 for the second.

Going from RRIRKRPPRLPRPRPRPNFLPRP to RRIRMRPPRLPRPRPRPKQQPRP, the “shrunken log2 fold change” value rises from -0.185 to 0.48.

First: RRIRWRPPRLPRPRPRPQVDPRP
Second: RRIRIRPPRLPRPRPRPPPMPRP
The “shrunken log2 fold change” value of the first is higher: 1.5 for the first, 0.377 for the second.

Compared with RRIRGRPPRLPRPRPRPEWGPRP, RRIRNRPPRLPRPRPRPSQLPRP is lower in “shrunken log2 fold change” value: 0.544 for the first, 0.00155 for the second.

First: RRIRPRPPRLPRPRPRPPCCPRP
Second: RRIRHRPPRLPRPRPRPYFHPRP
The “shrunken log2 fold change” value of the first is higher: -0.0155 for the first, -0.955 for the second.

First: RRIRHRPPRLPRPRPRPFSCPRP
Second: RRIRGRPPRLPRPRPRPLQMPRP
The “shrunken log2 fold change” value of the first is lower: -0.0244 for the first, 2.6 for the second.

RRIRYRPPRLPRPRPRPDTKPRP and RRIRPRPPRLPRPRPRPSPLPRP are within 0.2 log units of each other in “shrunken log2 fold change” value: -0.0212 for the first, 0.0443 for the second.

RRIRWRPPRLPRPRPRPCSGPRP and RRIRLRPPRLPRPRPRPCMHPRP are within 0.2 log units of each other in “shrunken log2 fold change” value: -0.0411 for the first, -0.0286 for the second.

Compared with RRIRKRPPRLPRPRPRPGNQPRP, RRIRPRPPRLPRPRPRPLAKPRP is higher in “shrunken log2 fold change” value: 0.0471 for the first, 0.261 for the second.

RRIRSRPPRLPRPRPRPWGWPRP and RRIRRRPPRLPRPRPRPLWGPRP are within 0.2 log units of each other in “shrunken log2 fold change” value: 0.0685 for the first, 0.0229 for the second.

Compared with RRIRERPPRLPRPRPRPTTTPRP, RRIRFRPPRLPRPRPRPSAAPRP is higher in “shrunken log2 fold change” value: -0.0224 for the first, 0.346 for the second.

RRIRYRPPRLPRPRPRPNSWPRP and RRIRDRPPRLPRPRPRPNGNPRP are within 0.2 log units of each other in “shrunken log2 fold change” value: -0.0916 for the first, -0.169 for the second.

Compared with RRIRVRPPRLPRPRPRPSPRPRP, RRIRCRPPRLPRPRPRPMMGPRP is lower in “shrunken log2 fold change” value: 0.415 for the first, 0.0355 for the second.

RRIRSRPPRLPRPRPRPRSHPRP and RRIRRRPPRLPRPRPRPPKAPRP are within 0.2 log units of each other in “shrunken log2 fold change” value: -0.203 for the first, -0.00754 for the second.

Going from RRIRLRPPRLPRPRPRPMRTPRP to RRIRHRPPRLPRPRPRPIRQPRP, the “shrunken log2 fold change” value falls from 0.3 to 0.0104.

RRIRRRPPRLPRPRPRPDRLPRP and RRIRVRPPRLPRPRPRPYTRPRP are within 0.2 log units of each other in “shrunken log2 fold change” value: 0.058 for the first, -0.0163 for the second.

First: RRIRWRPPRLPRPRPRPFCGPRP
Second: RRIRMRPPRLPRPRPRPCVVPRP
The “shrunken log2 fold change” value of the first is higher: 0.437 for the first, -0.0402 for the second.

RRIRTRPPRLPRPRPRPWLVPRP and RRIRKRPPRLPRPRPRPQIDPRP are within 0.2 log units of each other in “shrunken log2 fold change” value: -0.0639 for the first, 0.00239 for the second.

RRIRQRPPRLPRPRPRPLEQPRP and RRIRTRPPRLPRPRPRPEHKPRP are within 0.2 log units of each other in “shrunken log2 fold change” value: 0.0165 for the first, -0.0645 for the second.

First: RRIRMRPPRLPRPRPRPSRWPRP
Second: RRIRKRPPRLPRPRPRPTPIPRP
The “shrunken log2 fold change” value of the first is higher: 1 for the first, 0.639 for the second.

Compared with RRIRGRPPRLPRPRPRPIKNPRP, RRIRCRPPRLPRPRPRPKDDPRP is lower in “shrunken log2 fold change” value: 0.488 for the first, 0.146 for the second.

First: RRIRTRPPRLPRPRPRPFGVPRP
Second: RRIRDRPPRLPRPRPRPFIPPRP
The “shrunken log2 fold change” value of the first is higher: 0.0203 for the first, -0.334 for the second.

RRIRMRPPRLPRPRPRPQWMPRP and RRIRTRPPRLPRPRPRPVRTPRP are within 0.2 log units of each other in “shrunken log2 fold change” value: 0.109 for the first, 0.149 for the second.

RRIRQRPPRLPRPRPRPRMFPRP was tested, and the “shrunken log2 fold change” value was 0.0604.
